Sequences and labels used below:
T1: PDZ domain of wild type human PALS1 protein (human, UniProt Q8N3R9 256-336)
T1 sequence: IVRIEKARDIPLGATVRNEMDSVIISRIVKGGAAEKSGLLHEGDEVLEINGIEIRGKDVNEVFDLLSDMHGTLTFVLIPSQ

B1: CRB1 C-terminal tetradecapeptide (endogenous PALS1 ligand) (peptide)
peptide: Biotin-MWNLMPPPAMERLI
B2: [change] variant of the PDZ domain of PALS1 (domain or fragment)
chain: T1 sequence with F63W

Test in all cases: SPR
Assay [1] concerns the target T1, PDZ domain of wild type human PALS1 ….
For assay [2] the target is unchanged. This is another data set of the same source.
The target in assay [3] is B1.

Changes are numbered by the printed parent chain. Where two headings read alike, the source gives them in different places. No end group written: not given here. *: point of attachment. Biotin = O=C1N[C@H]2[C@H](CS[C@H]2CCCCC(=O)*)N1 Bounds are passed on as bounds.

The molecule B1 returned a Kd in assay [1] of 5.11 µM. The molecule KNLNSSEGVPDLLV [SARS-CoV-1 envelope E protein C-terminal tetradecapeptide] registered a dissociation constant Kd in assay [2] of more than 500 µM. The molecule B2 came in with a Kd in assay [3] of 18 µM.

On to Biotin-VKNLNSSRVPDLLV [SARS-CoV-2 envelope E protein C-terminal tetradecapeptide], for which binding in assay [2] was characterised by a dissociation constant (Kd) of 63 µM.

These data come from article PMC7970798 (Computational and Structural Biotechnology Journal, 2021).
